Laboratory results reported in PMC10351740, “ZCCHC3 is a stress granule zinc knuckle protein that strongly suppresses LINE-1 retrotransposition” (PLOS Genetics, 2023).
Residue numbers refer to the chain shown, from its start.

What was measured:
[1] = molecular target: T1, ZCCHC3-FL-7AA (zinc knuckle mutant of ZCCHC3-FL) (human, UniProt Q9NUD5 1-403, C353,366,372,375A | C353,366,372,375A | C353,366,372,375A | C353,366,372,375A | …); assay: co-IP; HEK 293T lysates, FLAG-tagged bait on α-FLAG-M2 antibody bound to Protein G Dynabeads, 3 h at 4°C, 5 washes; endogenous ORF1p detected with polyclonal α-L1Hs-ORF1p; bands quantified with ImageJ (IP/input compared with empty vector); conditions: partners not purified
T1 construct: also called zinc-finger mutant ZCCHC3-FL-7AA; source: HEK 293T, transfected, in lysate; not shown: FLAG, C-terminal, kept
T1 sequence (looked up): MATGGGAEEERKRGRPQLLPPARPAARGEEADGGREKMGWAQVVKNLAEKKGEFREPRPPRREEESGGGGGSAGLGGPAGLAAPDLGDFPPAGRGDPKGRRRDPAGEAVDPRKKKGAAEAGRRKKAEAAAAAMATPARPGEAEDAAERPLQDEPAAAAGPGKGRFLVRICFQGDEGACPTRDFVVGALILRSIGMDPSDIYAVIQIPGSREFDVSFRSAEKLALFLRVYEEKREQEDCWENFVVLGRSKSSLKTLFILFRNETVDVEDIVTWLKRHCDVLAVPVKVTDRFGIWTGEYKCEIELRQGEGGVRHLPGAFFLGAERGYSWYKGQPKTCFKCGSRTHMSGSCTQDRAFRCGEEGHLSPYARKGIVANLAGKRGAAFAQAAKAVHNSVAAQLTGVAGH

[2] = molecular target: T2, ZCCHC3-FL (Zinc Finger CCHC-Type Containing 3 with C-terminal FLAG epitope tag) (human, UniProt Q9NUD5 1-403); assay: as above; conditions: partners not purified
T2 construct: ZCCHC3 (Zinc Finger CCHC-Type Containing 3), human; made by PCR amplification of V5-TEV-ZCCHC3 (Ultimate ORF clone IOH40787); legend calls it the 44 kD full-length ZCCHC3-FL; also called FLAG-tagged ZCCHC3; wild-type ZCCHC3-FL; source: HEK 293T, transfected, in lysate; not shown: FLAG, C-terminal, kept
T2 sequence (looked up): T1 sequence (looked up) with A353C, A366C, A372C, A375C, A380H, A385C, A386P

fold reduction against wild-type ZCCHC3-FL (band intensity) [1]: 2 fold
fold increase over empty vector controls (IP/input band intensity) [2]: 5 fold
B1: endogenous L1 ORF1p (natural protein, human (endogenous in HEK 293T), UniProt Q9UN81 1-338, looked up)
chain: MGKKQNRKTGNSKTQSASPPPKERSSSPATEQSWMENDFDELREEGFRRSNYSELREDIQTKGKEVENFEKNLEECITRITNTEKCLKELMELKTKARELREECRSLRSRCDQLEERVSAMEDEMNEMKREGKFREKRIKRNEQSLQEIWDYVKRPNLRLIGVPESDVENGTKLENTLQDIIQENFPNLARQANVQIQEIQRTPQRYSSRRATPRHIIVRFTKVEMKEKMLRAAREKGRVTLKGKPIRLTADLSAETLQARREWGPIFNILKEKNFQPRISYPAKLSFISEGEIKYFIDKQMLRDFVTTRPALKELLKEALNMERNNRYQPLQNHAKM
notes: LINE-1 ORF1 protein, endogenous in HEK 293T cells; Endogenous ORF1p comes from many L1 loci; also called endogenous ORF1p; source: endogenous, HEK 293T lysate
